Test results: patent publication US20240092919A1 (Ablynx, published 2024)

T1: Cynomolgus TCR(AEA41865/AEA41866)-zipper protein (cynomolgus monkey)
T1 construct: also called cyTCR-zipper protein; cynoTCR zipper
T1 TCR alpha: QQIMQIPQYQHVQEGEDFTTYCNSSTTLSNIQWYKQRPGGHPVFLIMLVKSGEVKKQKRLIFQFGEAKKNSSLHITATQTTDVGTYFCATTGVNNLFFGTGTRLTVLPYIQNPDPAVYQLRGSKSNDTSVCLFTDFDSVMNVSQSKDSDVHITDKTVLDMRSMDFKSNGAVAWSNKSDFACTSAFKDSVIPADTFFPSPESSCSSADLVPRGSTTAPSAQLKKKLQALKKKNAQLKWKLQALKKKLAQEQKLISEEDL
T1 TCR beta: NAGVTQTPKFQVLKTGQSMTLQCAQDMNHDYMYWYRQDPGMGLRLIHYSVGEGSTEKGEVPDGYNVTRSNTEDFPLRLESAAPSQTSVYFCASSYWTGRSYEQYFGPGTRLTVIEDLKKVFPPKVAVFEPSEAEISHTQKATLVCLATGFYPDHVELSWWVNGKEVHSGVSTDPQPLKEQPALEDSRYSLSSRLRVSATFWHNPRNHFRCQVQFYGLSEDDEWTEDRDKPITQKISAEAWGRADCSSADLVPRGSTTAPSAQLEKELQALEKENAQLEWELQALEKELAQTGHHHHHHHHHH

T2: Human T cell receptor on human primary T cells (human, UniProt P01848 1-140; P01850 1-176)
T2 TCR alpha (looked up): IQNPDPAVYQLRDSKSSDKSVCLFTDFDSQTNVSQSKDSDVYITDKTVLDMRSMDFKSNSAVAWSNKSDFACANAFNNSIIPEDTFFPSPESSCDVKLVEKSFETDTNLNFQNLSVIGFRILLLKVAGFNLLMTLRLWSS
T2 TCR beta (looked up): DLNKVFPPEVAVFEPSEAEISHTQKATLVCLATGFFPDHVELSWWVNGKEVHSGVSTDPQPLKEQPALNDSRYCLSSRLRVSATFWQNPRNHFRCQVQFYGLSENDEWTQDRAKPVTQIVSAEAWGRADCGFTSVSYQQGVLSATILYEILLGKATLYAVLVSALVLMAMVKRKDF

T3: Cynomolgus TCR(AEA41865/AEA41866)-zipper protein (cynomolgus monkey)
T3 construct: also called cyTCR-zipper protein; cynoTCR zipper
T3 TCR alpha: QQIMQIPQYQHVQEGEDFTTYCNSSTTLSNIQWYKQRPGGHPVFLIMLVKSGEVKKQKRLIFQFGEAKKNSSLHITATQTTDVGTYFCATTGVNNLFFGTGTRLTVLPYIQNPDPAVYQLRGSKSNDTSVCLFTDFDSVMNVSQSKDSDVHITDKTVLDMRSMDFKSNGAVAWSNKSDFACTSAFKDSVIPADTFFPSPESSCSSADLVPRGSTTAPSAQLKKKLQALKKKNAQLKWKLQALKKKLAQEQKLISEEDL
T3 TCR beta: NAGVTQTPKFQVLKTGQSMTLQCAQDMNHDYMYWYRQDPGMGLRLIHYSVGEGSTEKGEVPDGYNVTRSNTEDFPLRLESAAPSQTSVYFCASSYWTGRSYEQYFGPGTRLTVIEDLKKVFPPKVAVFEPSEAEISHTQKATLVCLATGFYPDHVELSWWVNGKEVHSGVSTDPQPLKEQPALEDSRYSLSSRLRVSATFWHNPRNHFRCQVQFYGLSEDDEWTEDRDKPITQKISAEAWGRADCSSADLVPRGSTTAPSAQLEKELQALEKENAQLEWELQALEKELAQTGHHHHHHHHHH


What was measured:
[1] = target: T1, Cynomolgus …; experiment: SPR, ProteOn XPR36, 25 C, immobilised TCR-zipper
Source text: HuTCR-zipper or cyTCR-zipper protein was immobilized on a GLC sensor chip (between 100-200 RU) via amine coupling chemistry, using EDC/NHS for activation of the carboxyl groups on the chip surface (running buffer: HBS-EP+, pH7.4). […] Processed sensorgrams were fitted with the Langmuir model (1:1 interaction) using ProteOn Manager 3.1.0 (Version 3.1.0.6) software.

[2] = target: T2, Human T cell receptor on human primary …; experiment: cell-based or functional assay
[3] = target: Cynomolgus T cell receptor on cynomolgus primary T cells (cynomolgus monkey); experiment: cell-based or functional assay; as to % Lysis, T cell mediated MOLM-13 cell killing, cynomolgus primary T cells, E:T 10:1: test concentration or dose not given here
[4] = target: T3, Cynomolgus …; experiment: ratio higher/lower kd on huTCR- and cyTCR-zipper (SPR)
Source text: (§1) Unique ISVD clones, i.e. clones with a unique sequence, were subsequently selected and screened to determine their off-rate. To this purpose, the ISVD containing periplasmic extracts were screened on huTCR-zipper and cyTCR-zipper protein by SPR on a ProteOn XPR36 instrument. The zipper proteins were immobilized on a GLC sensor chip (between 4300 and 5100RU) via amine coupling chemistry, using EDC/sulfo-NHS for activation of the carboxyl groups on the chip surface (running buffer: HBS-EP+, pH7.4). Periplasmic extracts were injected at 1/10 dilution for 2 min (at a flow rate of 45 μL/min) and dissociation was followed for 900 s. A pulse of 100 s of 3 M MgCl2 at 45 μL/min was used for regeneration. […] Processed sensorgrams were fitted with the Langmuir model (1:1 interaction) using ProteOn Manager 3.1.0 (Version 3.1.0.6) software.

[5] = target: T3, Cynomolgus …; experiment: SPR ProteOn off-rate screen
Source text: as §1
For % Lysis, T cell mediated MOLM-13 cell killing, human primary T cells, E:T 10:1 in this document: test concentration or dose not given here.

| Binder | Kd [1] [nM] | % Lysis, T cell mediated MOLM-13 cell killing, human primary T cells, E:T 10:1 [2] [%] | % Lysis, T cell mediated MOLM-13 cell killing, cynomolgus primary T cells, E:T 10:1 [3] [%] | EC50 (M), T cell mediated MOLM-13 cell killing, cynomolgus primary T cells, E:T 10:1 [3] [M] | EC50 (M), T cell mediated MOLM-13 cell killing, human primary T cells, E:T 10:1 [2] [M] | gap in off-rate human vs cyno [4] [fold] | koff [5] [s⁻¹] |
| --- | --- | --- | --- | --- | --- | --- | --- |
| T017000643 (bispecific antibody, also called A0110056A10(E1D)-35GS-T0170056G05(L11V, G26W, L34Y, G35T, M77T, K83R, V89L, F91Y, F95L, R97K, Y99W)-A) DVQLVESGGGLVQAGGSLRLSCAASGITSKINDMGWYRQTPGNYREWVASITATGTTNYRDSVKGRFTISRDNAKSTVYLQMNSLKPEDTTVYYCNTFPPISNFWGQGTLVTVSSGGGGSGGGGSGGGGSGGGGSGGGGSGGGGSGGGGSEVQLVESGGGVVQPGGSLRLSCVASWDVHKINFYTWYRQAPGKEREKVAHISIGDQTDYADSAKGRFTISRDESKNTVYLQMNSLRPEDTALYYCRALSKIWPYDYWGQGTLVTVSSA | 900 | 0 | 12 | 1.6e-10 |  |  |  |
| T017000627 (bispecific antibody) DVQLVESGGGVVQPGGSLRLSCVASWDVHKINFYGWYRQAPGKEREKVAHISIGDQTDYADSAKGRFTISRDESKNTVYLQMNSLRPEDTALYYCRALSKIWPYDYWGQGTLVTVSSGGGGSGGGGSGGGGSGGGGSGGGGSGGGGSGGGGSEVQLVESGGGLVQAGGSLRLSCAASGITSKINDMGWYRQTPGNYREWVASITATGTTNYRDSVKGRFTISRDNAKSTVYLQMNSLKPEDTTVYYCNTFPPISNFWGQGTLVTVSSA | 5.2 | 36 | 19 | 3.8e-11 | 2.4e-10 |  |  |
| T017000636 (bispecific antibody) DVQLVESGGGVVQPGGSLRLSCVASWDVHQINFYGWYRQAPGKEREKVAHISIGDQTDYADSAKGRFTISRDESKNTVYLQMNSLRPEDTALYYCRALSRIWPYDYWGQGTLVTVSSGGGGSGGGGSGGGGSGGGGSGGGGSGGGGSGGGGSEVQLVESGGGLVQAGGSLRLSCAASGITSKINDMGWYRQTPGNYREWVASITATGTTNYRDSVKGRFTISRDNAKSTVYLQMNSLKPEDTTVYYCNTFPPISNFWGQGTLVTVSSA | 29 | 36 | 20 | 6.7e-11 | 6.6e-11 |  |  |
| T017000639 (bispecific antibody) DVQLVESGGGVVQPGGSLRLSCVASWDVHKINFYTWYRQAPGKEREKVAHISIGDQTDYADSAKGRFTISRDESKNTVYLQMNSLRPEDTALYYCRALSRIWPYDYWGQGTLVTVSSGGGGSGGGGSGGGGSGGGGSGGGGSGGGGSGGGGSEVQLVESGGGLVQAGGSLRLSCAASGITSKINDMGWYRQTPGNYREWVASITATGTTNYRDSVKGRFTISRDNAKSTVYLQMNSLKPEDTTVYYCNTFPPISNFWGQGTLVTVSSA | 44 | 42 | 28 | 4.1e-11 | 3.6e-11 |  |  |
| T017000642 (bispecific antibody) DVQLVESGGGVVQPGGSLRLSCVASWDVHKINFYTWYRQAPGKEREKVAHISIGDQTDYADSAKGRFTISRDESKNTVYLQMNSLRPEDTALYYCRALSKIWPYDYWGQGTLVTVSSGGGGSGGGGSGGGGSGGGGSGGGGSGGGGSGGGGSEVQLVESGGGLVQAGGSLRLSCAASGITSKINDMGWYRQTPGNYREWVASITATGTTNYRDSVKGRFTISRDNAKSTVYLQMNSLKPEDTTVYYCNTFPPISNFWGQGTLVTVSSA | 5.5 | 32 | 37 | 4e-11 | 3e-10 |  |  |
| T017000141 (VHH, not shown: small tags and cut ends, also called T0170000141) VHH: EVQLVESGGGVVQPGGSLRLSCVASGDVHKINFLGWYRQAPGKEREKVAHISIGDQTDYADSAKGRFTISRDESKNMVYLQMNSLRPEDTALYFCRAFSRIYPYDYWGQGTLVTVSS |  |  |  |  |  | 7.5 |  |
| T017000358 (VHH) VHH: EVQLVESGGGVVQPGGSLRLSCVASGAVHKLNFLGWYRQAPGKEREKVAHISIGDQTDYADSAKGRFTISRDESKNMVYLQMNSLRPEDTALYFCRAMSRIWPYDYWGQGTLVTVSS |  |  |  |  |  | 8 | 0.00115 |
| T017000383 (VHH) VHH: EVQLVESGGGVVQPGGSLRLSCVASGDVHQINFLGWYRQAPGKEREKVAHISIGDQTDYADSAKGRFTISRDESKNMVYLQMNSLRPEDTALYFCRAMSRIWPYDYWGQGTLVTVSS |  |  |  |  |  | 5 | 0.00216 |
| T017000390 (VHH) VHH: EVQLVESGGGVVQPGGSLRLSCVASWDVHQINFLGWYRQAPGKEREKVAHISIGDQTDYADSAKGRFTISRDESKNMVYLQMNSLRPEDTALYFCRAMSKIWPYDYWGQGTLVTVSS |  |  |  |  |  | 3 | 0.000221 |
